Assay results as given in publication PMC7321154, “Pharmacokinetic Properties of ^68Ga-labelled Folic Acid Conjugates: Improvement Using HEHE Tag” (Molecules, 2020).
Numbered stars: 1 amine (or outer) side, 2 acyl side, 3 side chain; on linkers, the order of the positions; unused ones are H or OH. Peptide text beside a SMILES is read from it. * marks the point of attachment. NODAGA = O=C(O)CN1CCN(CC(=O)O)CCN(C(CCC(=O)*)C(=O)O)CC1; Pteroyl = Nc1nc2ncc(CNc3ccc(C(=O)*)cc3)nc2c(=O)[nH]1; γGlu = O=C(O)[C@H](CCC(=O)[*:2])N[*:1]

Key:
in vivo [1] = assay: in vivo; set-up: species or system BALB/c nude mice; conditions: female, BALB/c nude, mouse, iv, total radioactivity; for tissue to tissue ratio at 0.5 h / tissue to tissue ratio at 1 h: Differential uptake ratio (DUR)
Method: For the experimental tumor models athymic female BALB/c nude mice (4−5 weeks old, 18−20 g) were subcutaneously inoculated in the right flank with suspended 2 × 10^6 KB cells (150 μL, Opti-MEM (Gibco, Thermo Fisher Scientific, Waltham, MA, USA) and 50% Matrigel (Becton Dickinson, Franklin Lakes, NJ, USA). Tumors were allowed to grow for 12−16 days (tumor weight 500−900 mg). Animals were grouped (N = 3–5/group) and injected with 10−12 MBq/100 μL of each ^68Ga-NODAGA-folate conjugate into the tail vein. At preselected time points of (30, 60, 90, 120 min for rats and 30, 60 min for mice) animals were sacrificed. The organs of interest were collected, blotted dry, weighed, and counted using a WIZARD^2 automatic γ-counter (PerkinElmer). The results are expressed as the percentage of injected activity dose per gram (% ID/g ± SD) for each organ/tissue.

in vivo [2] = assay: in vivo; set-up: species or system Wistar rats; conditions: Wistar, rat, iv, total radioactivity
Method: Normal biodistribution studies were carried out in healthy Wistar rats. Animals were grouped (N = 5/group) and injected with 10−12 MBq/100 μL of each ^68Ga-NODAGA-folate conjugate into the tail vein. Nonspecific uptake in FR-positive organs (e.g., kidneys) was determined by 5 min of folic acid pre-injection (36 μM, 100 μL) in PBS pH 7.4. At preselected time points of (30, 60, 90, 120 min for rats and 30, 60 min for mice) animals were sacrificed. The organs of interest were collected, blotted dry, weighed, and counted using a WIZARD^2 automatic γ-counter (PerkinElmer). The results are expressed as the percentage of injected activity dose per gram (% ID/g ± SD) for each organ/tissue.

in vitro = in vitro ADME; conditions: human, plasma
Method: The plasma stability of [^68Ga]Ga-FA-I and [^68Ga]Ga-FA-II was determined in human plasma in vitro.

**Q.** Which tissue to tissue ratio at 0.5 h (in vivo [1]; Tumor-to-blood) does the source give for `Nc1nc2ncc(CNc3ccc(C(=O)N[C@@H](CCC(=O)N[C@@H](CCCCNC(=O)CCC(C(=O)O)N4CCN(CC(=O)O)CCN(CC(=O)O)CC4)C(=O)N[C@@H](Cc4c[nH]cn4)C(=O)N[C@@H](CCC(=O)O)C(=O)N[C@@H](Cc4c[nH]cn4)C(=O)N[C@@H](CCC(=O)O)C(=O)O)C(=O)O)cc3)nc2c(=O)[nH]1` (stereo partly shown) [[^68Ga]Ga-FA-II, metal not drawn] ({Pteroyl-γGlu}-K(NODAGA)HEHE-OH) here?
**A.** Its tissue to tissue ratio at 0.5 h is 1.6 ± 0.5.

**Q.** And the tissue to tissue ratio at 1 h (in vivo [1]; Tumor-to-blood)?
**A.** The tissue to tissue ratio at 1 h was 6.1 ± 2.5.

**Q.** And the tissue to tissue ratio at 0.5 h (in vivo [1]; Tumor-to-kidneys)?
**A.** Its tissue to tissue ratio at 0.5 h is 0.39 ± 0.18.

**Q.** What about the tissue to tissue ratio at 1 h (in vivo [1]; Tumor-to-kidneys) of the same molecule?
**A.** The tissue to tissue ratio at 1 h was 0.79 ± 0.28.

**Q.** What about the tissue to tissue ratio at 0.5 h (in vivo [1]; Tumor-to-muscle) of the same molecule?
**A.** The tissue to tissue ratio at 0.5 h was 7.1 ± 2.8.

**Q.** What about the tissue to tissue ratio at 1 h (in vivo [1]; Tumor-to-muscle) of the same molecule?
**A.** The tissue to tissue ratio at 1 h was 28.9 ± 13.7.

**Q.** What about the tissue uptake at 0.5 h (in vivo [1]; accumulation in bladder) of the same molecule?
**A.** Its tissue uptake at 0.5 h is 1.46 ± 0.53 %ID/g.

**Q.** What about the tissue uptake at 1 h (in vivo [1]; accumulation in bladder) of the same molecule?
**A.** Its tissue uptake at 1 h is 0.96 ± 0.46 %ID/g.

**Q.** What about the tissue uptake at 0.5 h (in vivo [1]; accumulation in brain) of the same molecule?
**A.** Its tissue uptake at 0.5 h is 0.09 ± 0.03 %ID/g.

**Q.** What about the tissue uptake at 1 h (in vivo [1]; accumulation in brain) of the same molecule?
**A.** Its tissue uptake at 1 h is 0.1 ± 0.03 %ID/g.

**Q.** What about the tissue uptake at 0.5 h (in vivo [1]; accumulation in intestines) of the same molecule?
**A.** The tissue uptake at 0.5 h was 0.46 ± 0.15 %ID/g.

**Q.** What about the tissue uptake at 1 h (in vivo [1]; accumulation in intestines) of the same molecule?
**A.** Its tissue uptake at 1 h is 0.45 ± 0.13 %ID/g.

**Q.** What about the tissue uptake at 0.5 h (in vivo [1]; accumulation in kidneys) of the same molecule?
**A.** The tissue uptake at 0.5 h was 4.47 ± 0.97 %ID/g.

**Q.** And the tissue uptake at 1 h (in vivo [1]; accumulation in kidneys)?
**A.** The tissue uptake at 1 h was 4.64 ± 0.26 %ID/g.

**Q.** What about the tissue uptake at 0.5 h (in vivo [1]; accumulation in liver) of the same molecule?
**A.** The tissue uptake at 0.5 h was 0.51 ± 0.13 %ID/g.

**Q.** And the tissue uptake at 1 h (in vivo [1]; accumulation in liver)?
**A.** The tissue uptake at 1 h was 0.27 ± 0.08 %ID/g.

**Q.** What about the tissue uptake at 0.5 h (in vivo [1]; accumulation in muscle) of the same molecule?
**A.** Its tissue uptake at 0.5 h is 0.24 ± 0.04 %ID/g.

**Q.** And the tissue uptake at 1 h (in vivo [2])?
**A.** Its tissue uptake at 1 h is 4.27 ± 0.93 %ID/g.

**Q.** What about the tissue uptake at 0.5 h (in vivo [2]; accumulation in blood) of the same molecule?
**A.** Its tissue uptake at 0.5 h is 0.28 ± 0.03 %ID/g.

**Q.** And the tissue uptake at 1 h (in vivo [2]; accumulation in blood)?
**A.** Its tissue uptake at 1 h is 0.22 ± 0.06 %ID/g.

**Q.** And the tissue uptake at 1.5 h (in vivo [2]; accumulation in blood)?
**A.** The tissue uptake at 1.5 h was 0.09 ± 0.01 %ID/g.

**Q.** What about the tissue uptake at 2 h (in vivo [2]; accumulation in blood) of the same molecule?
**A.** Its tissue uptake at 2 h is 0.06 ± 0.02 %ID/g.

**Q.** What about the tissue uptake at 0.5 h (in vivo [2]; accumulation in brain) of the same molecule?
**A.** The tissue uptake at 0.5 h was 0.04 ± 0.01 %ID/g.

**Q.** What about the tissue uptake at 1 h (in vivo [2]; accumulation in brain) of the same molecule?
**A.** The tissue uptake at 1 h was 0.02 ± 0.01 %ID/g.

**Q.** And the tissue uptake at 1.5 h (in vivo [2]; accumulation in brain)?
**A.** The tissue uptake at 1.5 h was 0.02 ± 0.01 %ID/g.

**Q.** What about the tissue uptake at 2 h (in vivo [2]; accumulation in brain) of the same molecule?
**A.** Its tissue uptake at 2 h is 0.01 ± 0.01 %ID/g.

**Q.** What about the tissue uptake at 0.5 h (in vivo [2]; accumulation in heart) of the same molecule?
**A.** The tissue uptake at 0.5 h was 0.27 ± 0.07 %ID/g.

**Q.** What about the tissue uptake at 1 h (in vivo [2]; accumulation in heart) of the same molecule?
**A.** Its tissue uptake at 1 h is 0.16 ± 0.08 %ID/g.

**Q.** And the tissue uptake at 1.5 h (in vivo [2]; accumulation in heart)?
**A.** Its tissue uptake at 1.5 h is 0.1 ± 0.01 %ID/g.

**Q.** What about the tissue uptake at 2 h (in vivo [2]; accumulation in heart) of the same molecule?
**A.** The tissue uptake at 2 h was 0.08 ± 0.01 %ID/g.

**Q.** What about the tissue uptake at 0.5 h (in vivo [2]; accumulation in kidneys) of the same molecule?
**A.** Its tissue uptake at 0.5 h is 4.03 ± 0.94 %ID/g.

**Q.** And the tissue uptake at 1 h (in vivo [2]; accumulation in kidneys)?
**A.** Its tissue uptake at 1 h is 4.64 ± 1.8 %ID/g.

**Q.** What about the tissue uptake at 1.5 h (in vivo [2]; accumulation in kidneys) of the same molecule?
**A.** Its tissue uptake at 1.5 h is 4.42 ± 1.27 %ID/g.

**Q.** And the tissue uptake at 2 h (in vivo [2]; accumulation in kidneys)?
**A.** The tissue uptake at 2 h was 4.34 ± 0.18 %ID/g.

**Q.** And the tissue uptake at 0.5 h (in vivo [2]; accumulation in liver)?
**A.** Its tissue uptake at 0.5 h is 0.18 ± 0.06 %ID/g.

**Q.** And the tissue uptake at 1 h (in vivo [2]; accumulation in liver)?
**A.** Its tissue uptake at 1 h is 0.12 ± 0.06 %ID/g.

**Q.** And the tissue uptake at 1.5 h (in vivo [2]; accumulation in liver)?
**A.** Its tissue uptake at 1.5 h is 0.07 ± 0.01 %ID/g.

**Q.** What about the tissue uptake at 2 h (in vivo [2]; accumulation in liver) of the same molecule?
**A.** The tissue uptake at 2 h was 0.05 ± 0.01 %ID/g.

**Q.** What about the tissue uptake at 0.5 h (in vivo [2]; accumulation in lungs) of the same molecule?
**A.** The tissue uptake at 0.5 h was 0.28 ± 0.06 %ID/g.

**Q.** What about the tissue uptake at 1 h (in vivo [2]; accumulation in lungs) of the same molecule?
**A.** The tissue uptake at 1 h was 0.24 ± 0.07 %ID/g.

**Q.** And the tissue uptake at 1.5 h (in vivo [2]; accumulation in lungs)?
**A.** The tissue uptake at 1.5 h was 0.12 ± 0.02 %ID/g.

**Q.** What about the tissue uptake at 2 h (in vivo [2]; accumulation in lungs) of the same molecule?
**A.** The tissue uptake at 2 h was 0.11 ± 0.02 %ID/g.

**Q.** And the tissue uptake at 1 h (in vivo [2]; accumulation in muscle)?
**A.** Its tissue uptake at 1 h is 0.06 ± 0.01 %ID/g.

**Q.** And the tissue uptake at 1.5 h (in vivo [2]; accumulation in muscle)?
**A.** The tissue uptake at 1.5 h was 0.04 ± 0.01 %ID/g.

**Q.** And the tissue uptake at 2 h (in vivo [2]; accumulation in muscle)?
**A.** The tissue uptake at 2 h was 0.04 ± 0.01 %ID/g.

**Q.** What about the remaining at 3 h (in vitro) of the same molecule?
**A.** The remaining at 3 h was greater than 99%.
